Measured values published in patent US11230581B2, “Peptides and combination of peptides for use in immunotherapy against ovarian cancer and other cancers” (Immatics Biotechnologies GmbH, priority 2015, dated 2022).

target: HLA-A*02:01 (Homo sapiens, UniProt P04439, D140Y/D185E/D98H/E176V/E277Q/G131W/G231S/I119V/I121R/I166T/I218V/L300P/L318F/N151K/N90K/P208A/P217A/Q86G/Q94H/R138H/R169H/T345S); assay: MHC binding assay (UV-ligand exchange, β2m ELISA, peptide exchange yield); settings: binding of HLA-class I restricted peptides to HLA-A*02:01, UV-ligand exchange
Method in brief: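 Peptide-MHC complexes formed by UV-ligand exchange, cleaving a UV-sensitive placeholder peptide in favour of the test peptide. Exchange yield measured by ELISA: monomers diluted 100-fold onto streptavidin-coated plates, 1 h 37 °C, detected with 2 ug/ml HRP anti-β2m and TMB, absorbance at 450 nm.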

Peptide exchange (MHC class I binding score, peptide exchange yield) | Substance
“+++” (≥50 = +++) | 202 (ALLDQQGSRWTL; listed as Homo sapiens) [compound 202]
“++” (≥20% = ++) | 204 (KIAENVEEV; listed as Homo sapiens) [compound 204]
“+++” (≥50 = +++) | 205 (SLYPGTETMGL; listed as Homo sapiens) [compound 205]
“+++” (≥50 = +++) | 206 (VLQEGKLQKLAQL; listed as Homo sapiens) [compound 206]
“++” (≥20% = ++) | 207 (GLTSTNAEV; listed as Homo sapiens) [compound 207]
“+++” (≥50 = +++) | 208 (KISPVTFSV; listed as Homo sapiens) [compound 208]
“++” (≥20% = ++) | 209 (KLIESKHEV; listed as Homo sapiens) [compound 209]
“++” (≥20% = ++) | 210 (LLLNAVLTV; listed as Homo sapiens) [compound 210]
“++” (≥20% = ++) | 211 (LLWPGAALL; listed as Homo sapiens) [compound 211]
“++” (≥20% = ++) | 212 (ALWDQDNLSV; listed as Homo sapiens) [compound 212]
“+++” (≥50 = +++) | 214 (FLLDLDPLLL; listed as Homo sapiens) [compound 214]
“+++” (≥50 = +++) | 215 (QLINHLHAV; listed as Homo sapiens) [compound 215]
“+++” (≥50 = +++) | 216 (NLWEDPYYL; listed as Homo sapiens) [compound 216]
“++” (≥20% = ++) | 217 (ALIHPVSTV; listed as Homo sapiens) [compound 217]
“++” (≥20% = ++) | 218 (SALEELVNV; listed as Homo sapiens) [compound 218]
“+++” (≥50 = +++) | 219 (KLSDIGITV; listed as Homo sapiens) [compound 219]
“++” (≥20% = ++) | 220 (LLQKFVPEI; listed as Homo sapiens) [compound 220]
“++” (≥20% = ++) | 221 (ALYEEGLLL; listed as Homo sapiens) [compound 221]
“++” (≥20% = ++) | 222 (NLIENVQRL; listed as Homo sapiens) [compound 222]
“+++” (≥50 = +++) | 223 (ALLENIALYL; listed as Homo sapiens) [compound 223]
“+++” (≥50 = +++) | 224 (TLIDAQWVL; listed as Homo sapiens) [compound 224]
“+++” (≥50 = +++) | 225 (SLLKVLPAL; listed as Homo sapiens) [compound 225]
“++” (≥20% = ++) | 226 (MLYVVPIYL; listed as Homo sapiens) [compound 226]
“++” (≥20% = ++) | 227 (ALMNTLLYL; listed as Homo sapiens) [compound 227]
“++” (≥20% = ++) | 228 (AMQEYIAVV; listed as Homo sapiens) [compound 228]
“++” (≥20% = ++) | 229 (RLPGPLGTV; listed as Homo sapiens) [compound 229]
“+” (≥10% = +) | 230 (ILVDWLVEV; listed as Homo sapiens) [compound 230]
“++” (≥20% = ++) | 231 (FLSPQQPPLLL; listed as Homo sapiens) [compound 231]
“++” (≥20% = ++) | 232 (ALLEAQDVELYL; listed as Homo sapiens) [compound 232]

Second part, the substance before the results:

Substance | Peptide exchange (MHC class I binding score, peptide exchange yield)
181 (LLWAGTAFQV; listed as Homo sapiens) [compound 181] | “+++” (≥50 = +++)
182 (MLLEAPGIFL; listed as Homo sapiens) [compound 182] | “+++” (≥50 = +++)
183 (FGLDLVTEL; listed as Homo sapiens) [compound 183] | “+++” (≥50 = +++)
184 (YLMDINGKMWL; listed as Homo sapiens) [compound 184] | “+++” (≥50 = +++)
185 (FLIDDKGYTL; listed as Homo sapiens) [compound 185] | “++” (≥20% = ++)
186 (TLFFQQNAL; listed as Homo sapiens) [compound 186] | “++” (≥20% = ++)
187 (RQISIRGIVGV; listed as Homo sapiens) [compound 187] | “+++” (≥50 = +++)
188 (GLFPVTPEAV; listed as Homo sapiens) [compound 188] | “+++” (≥50 = +++)
189 (ALQRKLPYV; listed as Homo sapiens) [compound 189] | “+++” (≥50 = +++)
190 (FLSSLTETI; listed as Homo sapiens) [compound 190] | “+++” (≥50 = +++)
191 (LLQEGQALEYV; listed as Homo sapiens) [compound 191] | “++” (≥20% = ++)
192 (KMLDGASFTL; listed as Homo sapiens) [compound 192] | “+++” (≥50 = +++)
193 (QLLDADGFLNV; listed as Homo sapiens) [compound 193] | “+++” (≥50 = +++)
194 (ALPLFVITV; listed as Homo sapiens) [compound 194] | “+++” (≥50 = +++)
195 (GLFADLLPRL; listed as Homo sapiens) [compound 195] | “+++” (≥50 = +++)
196 (YLYSVEIKL; listed as Homo sapiens) [compound 196] | “++++” (≥75% = ++++)
197 (ALGPEGGRV; listed as Homo sapiens) [compound 197] | “++” (≥20% = ++)
198 (KTINKVPTV; listed as Homo sapiens) [compound 198] | “+++” (≥50 = +++)
199 (ALQDVPLSSV; listed as Homo sapiens) [compound 199] | “+++” (≥50 = +++)
200 (LLFGSVQEV; listed as Homo sapiens) [compound 200] | “+++” (≥50 = +++)
201 (RLVDYLEGI; listed as Homo sapiens) [compound 201] | “+++” (≥50 = +++)
